# Source: paper PMC4957108, “Impact of structural polymorphism for the Helicobacter pylori CagA oncoprotein on binding to polarity-regulating kinase PAR1b” (Scientific Reports, 2016)
# T1: CagA-2CM^W (Helicobacter pylori strain 26695, UniProt P55980 1-1186)
# T1 construct: also called canonical Western ABC type CagA
# T1 sequence (looked up): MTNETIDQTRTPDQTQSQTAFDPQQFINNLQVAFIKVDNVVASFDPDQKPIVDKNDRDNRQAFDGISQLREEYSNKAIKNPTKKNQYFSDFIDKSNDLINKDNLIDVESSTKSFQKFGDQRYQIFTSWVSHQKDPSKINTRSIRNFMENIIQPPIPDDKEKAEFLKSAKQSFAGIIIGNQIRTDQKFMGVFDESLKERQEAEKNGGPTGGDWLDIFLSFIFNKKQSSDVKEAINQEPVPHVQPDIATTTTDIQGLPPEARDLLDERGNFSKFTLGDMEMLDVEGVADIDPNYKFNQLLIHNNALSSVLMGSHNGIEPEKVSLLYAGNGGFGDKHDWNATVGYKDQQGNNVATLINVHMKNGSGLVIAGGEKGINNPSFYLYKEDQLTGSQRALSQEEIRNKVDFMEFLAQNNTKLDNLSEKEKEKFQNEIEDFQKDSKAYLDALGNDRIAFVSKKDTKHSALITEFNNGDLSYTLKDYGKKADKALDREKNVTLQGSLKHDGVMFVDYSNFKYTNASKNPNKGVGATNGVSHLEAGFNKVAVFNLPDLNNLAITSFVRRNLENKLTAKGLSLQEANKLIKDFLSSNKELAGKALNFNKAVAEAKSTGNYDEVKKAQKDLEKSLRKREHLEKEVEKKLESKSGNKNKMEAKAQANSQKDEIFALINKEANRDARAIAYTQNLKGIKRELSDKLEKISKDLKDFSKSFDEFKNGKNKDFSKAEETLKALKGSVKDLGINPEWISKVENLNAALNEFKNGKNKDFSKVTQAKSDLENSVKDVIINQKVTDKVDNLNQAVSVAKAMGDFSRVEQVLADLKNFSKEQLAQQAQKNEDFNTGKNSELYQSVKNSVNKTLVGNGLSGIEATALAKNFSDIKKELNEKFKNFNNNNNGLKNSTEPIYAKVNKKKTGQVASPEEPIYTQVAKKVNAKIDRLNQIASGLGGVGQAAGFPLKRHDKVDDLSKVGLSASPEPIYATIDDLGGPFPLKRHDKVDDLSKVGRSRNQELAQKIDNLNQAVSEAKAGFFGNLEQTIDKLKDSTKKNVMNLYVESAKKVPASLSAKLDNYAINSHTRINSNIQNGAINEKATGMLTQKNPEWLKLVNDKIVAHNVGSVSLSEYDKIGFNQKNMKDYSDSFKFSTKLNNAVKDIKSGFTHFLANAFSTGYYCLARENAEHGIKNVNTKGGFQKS
# Assays:
# Settings in all cases: both partners purified
# GST-CagA-2CM^W = GST-CagA-2CM^W (Helicobacter pylori strain 26695, UniProt P55980 1-1186); assay: pull-down; quantitative GST pull-down: GST-CagA on beads in a range of concentrations, fixed low concentration of PAR1b (39–364)-FLAG, GST-binding buffer with 0.01% Triton-X, 20 min at 4 °C, unbound PAR1b in the supernatant quantified, binding to GST control subtracted; apparent KD
# CagA-2CM^W = target: T1, CagA-2CM^W; assay: SEC; Superdex 200 10/300 GL, HBS-P running buffer, 4 °C, 0.5 ml/min; CagA constructs alone or mixed with PAR1b (39–364) at a molar ratio of 1:1 or 1:2; fractions on SDS-PAGE, CBB bands quantified
# GST-CagA-4CM^W = GST-CagA-4CM^W (Helicobacter pylori strain NCTC11637); assay: pull-down; quantitative GST pull-down: GST-CagA on beads in a range of concentrations, fixed low concentration of PAR1b (39–364)-FLAG, GST-binding buffer with 0.01% Triton-X, 20 min at 4 °C, unbound PAR1b in the supernatant quantified, binding to GST control subtracted; apparent KD
binder,measurement,setting,value
"PAR1b (39–364)-FLAG (domain or fragment, C-terminal FLAG-6xHis tag left out) not shown",Kd,GST-CagA-2CM^W,26.6 nM
"PAR1b (39–364) (domain or fragment, C-terminal 6xHis tag left out) not shown",stoichiometry N,CagA-2CM^W,2 PAR1b per CagA
PAR1b (39–364)-FLAG (domain or fragment) not shown,Kd,GST-CagA-4CM^W,2.43 nM
